Data reported in US20110118131A1 (published 2011).
Where a chain is given by its changes, count along the chain named. In names and notes the source's numbering stands.

B1: XPA23 Fab, heavy chain G103F (Fab, V domains shown)
VH: EVQLLESGGGLVQPGGSLRLSCAASGFTFSKYFMFWVRQAPGKGLEWVSVISPSGGMTRYADSVKGRFTISRDNSKNTLYLQMNSLRAEDTAVYYCARVGYGFNSDYWGQGTLVTVSS
VL: DIQMTQSPSSVSASVGDRLTIICRASQDINRWLAWYQQTPGNAPKLLIHSATSLQSGVPSRFSGSGSGTDFTLTINSLQPEDFATYYCQQADSFPLTFGGGTKVEIK
B2: XPA23 Fab, heavy chain M57H (Fab, V domains shown)
VH: B1 VH with M57H, F103G
VL: B1 VL
B3: XPA23 Fab, heavy chain K31N (Fab, V domains shown)
VH: B1 VH with K31N, F103G
VL: B1 VL
B4: XPA23 Fab, heavy chain I51K (Fab, V domains shown)
VH: B1 VH with I51K, F103G
VL: B1 VL
B5: XPA23 Fab, heavy chain M57F (Fab, V domains shown)
VH: B1 VH with M57F, F103G
VL: B1 VL
B6: XPA23 Fab, heavy chain N104H (Fab, V domains shown)
VH: B1 VH with F103G, N104H
VL: B1 VL
B7: XPA23 Fab, heavy chain N104W (Fab, V domains shown)
VH: B1 VH with F103G, N104W
VL: B1 VL
B8: XPA23 Fab, heavy chain K31H (Fab, V domains shown)
VH: B1 VH with K31H, F103G
VL: B1 VL
B9: XPA23 Fab, heavy chain N104Q (Fab, V domains shown)
VH: B1 VH with F103G, N104Q
VL: B1 VL
B10: XPA23 Fab, heavy chain N104S (Fab, V domains shown)
VH: B1 VH with F103G, N104S
VL: B1 VL
B11: XPA23 Fab, heavy chain K31D (Fab, V domains shown)
VH: B1 VH with K31D, F103G
VL: B1 VL
B12: XPA23 Fab, heavy chain N104F (Fab, V domains shown)
VH: B1 VH with F103G, N104F
VL: B1 VL
B13: XPA23 Fab, heavy chain N104E (Fab, V domains shown)
VH: B1 VH with F103G, N104E
VL: B1 VL
B14: XPA23 Fab, heavy chain G103Q (Fab, V domains shown)
VH: B1 VH with F103Q
VL: B1 VL
B15: XPA23 Fab, heavy chain N104D (Fab, V domains shown)
VH: B1 VH with F103G, N104D
VL: B1 VL
B16: XPA23 Fab, heavy chain K31Q (Fab, V domains shown)
VH: B1 VH with K31Q, F103G
VL: B1 VL
B17: XPA23 Fab, heavy chain M57E (Fab, V domains shown)
VH: B1 VH with M57E, F103G
VL: B1 VL
B18: XPA23 Fab, heavy chain I51H (Fab, V domains shown)
VH: B1 VH with I51H, F103G
VL: B1 VL
B19: XPA23 Fab, heavy chain M57N (Fab, V domains shown)
VH: B1 VH with M57N, F103G
VL: B1 VL
B20: XPA23 Fab, heavy chain N104K (Fab, V domains shown)
VH: B1 VH with F103G, N104K
VL: B1 VL
B21: XPA23 Fab, heavy chain G103W (Fab, V domains shown)
VH: B1 VH with F103W
VL: B1 VL
B22: XPA23 Fab, heavy chain I51F (Fab, V domains shown)
VH: B1 VH with I51F, F103G
VL: B1 VL
B23: XPA23 Fab, heavy chain K31Y (Fab, V domains shown)
VH: B1 VH with K31Y, F103G
VL: B1 VL
B24: XPA23 Fab, heavy chain M57S (Fab, V domains shown)
VH: B1 VH with M57S, F103G
VL: B1 VL
B25: XPA23 Fab, heavy chain M57Q (Fab, V domains shown)
VH: B1 VH with M57Q, F103G
VL: B1 VL
B26: XPA23 Fab, heavy chain I51R (Fab, V domains shown)
VH: B1 VH with I51R, F103G
VL: B1 VL
B27: XPA23 Fab, heavy chain K31S (Fab, V domains shown)
VH: B1 VH with K31S, F103G
VL: B1 VL
B28: XPA23 Fab, heavy chain N104R (Fab, V domains shown)
VH: B1 VH with F103G, N104R
VL: B1 VL
B29: XPA23 Fab, heavy chain M57Y (Fab, V domains shown)
VH: B1 VH with M57Y, F103G
VL: B1 VL
B30: XPA23 Fab, heavy chain G103K (Fab, V domains shown)
VH: B1 VH with F103K
VL: B1 VL
B31: XPA23 Fab, heavy chain M57K (Fab, V domains shown)
VH: B1 VH with M57K, F103G
VL: B1 VL
B32: XPA23 Fab, heavy chain I51S (Fab, V domains shown)
VH: B1 VH with I51S, F103G
VL: B1 VL
B33: XPA23 Fab, heavy chain K31W (Fab, V domains shown)
VH: B1 VH with K31W, F103G
VL: B1 VL
B34: XPA23 Fab, heavy chain I51D (Fab, V domains shown)
VH: B1 VH with I51D, F103G
VL: B1 VL
B35: XPA23 Fab, heavy chain G103R (Fab, V domains shown)
VH: B1 VH with F103R
VL: B1 VL
B36: XPA23 Fab, heavy chain I51Y (Fab, V domains shown)
VH: B1 VH with I51Y, F103G
VL: B1 VL
B37: XPA23 Fab, heavy chain K31R (Fab, V domains shown)
VH: B1 VH with K31R, F103G
VL: B1 VL
B38: XPA23 Fab, heavy chain I51E (Fab, V domains shown)
VH: B1 VH with I51E, F103G
VL: B1 VL
B39: XPA23 Fab, heavy chain I51Q (Fab, V domains shown)
VH: B1 VH with I51Q, F103G
VL: B1 VL
B40: XPA23 Fab, heavy chain I51W (Fab, V domains shown)
VH: B1 VH with I51W, F103G
VL: B1 VL
B41: XPA23 Fab, heavy chain N104Y (Fab, V domains shown)
VH: B1 VH with F103G, N104Y
VL: B1 VL
B42: XPA23 Fab, heavy chain M57R (Fab, V domains shown)
VH: B1 VH with M57R, F103G
VL: B1 VL
B43: XPA23 Fab, heavy chain K31F (Fab, V domains shown)
VH: B1 VH with K31F, F103G
VL: B1 VL
B44: XPA23 Fab, heavy chain K31E (Fab, V domains shown)
VH: B1 VH with K31E, F103G
VL: B1 VL
B45: XPA23 Fab, heavy chain M57D (Fab, V domains shown)
VH: B1 VH with M57D, F103G
VL: B1 VL
B46: XPA23 Fab, heavy chain I51N (Fab, V domains shown)
VH: B1 VH with I51N, F103G
VL: B1 VL

Molecular target: T1, IL-1beta (UniProt P01584 117-269)
T1 construct: also called IL-1β
Experiment: Biacore

Binder | binding result | fold difference in affinity vs parental
B1 | no binding | –
B2 | – | 0.08 fold
B3 | no binding | –
B4 | – | 0.11 fold
B5 | – | 1.03 fold
B6 | – | 0.07 fold
B7 | no binding | –
B8 | – | 1.11 fold
B9 | – | 0.03 fold
B10 | – | 1.02 fold
B11 | – | 0.04 fold
B12 | no binding | –
B13 | no binding | –
B14 | no binding | –
B15 | no binding | –
B16 | no binding | –
B17 | no binding | –
B18 | – | 0.08 fold
B19 | – | 0.03 fold
B20 | no binding | –
B21 | no binding | –
B22 | – | 0.9 fold
B23 | – | 0.04 fold

Binder | binding result | fold difference in affinity vs parental
B24 | – | 0.04 fold
B25 | – | 0.02 fold
B26 | – | 0.1 fold
B27 | no binding | –
B28 | no binding | –
B29 | – | 0.86 fold
B30 | no binding | –
B31 | – | 0.04 fold
B32 | – | 0.69 fold
B33 | – | 0.84 fold
B34 | – | 0.07 fold
B35 | no binding | –
B36 | – | 1.75 fold
B37 | – | 0.9 fold
B38 | – | 0.73 fold
B39 | – | 0.83 fold
B40 | no binding | –
B41 | no binding | –
B42 | – | 0.06 fold
B43 | – | 0.05 fold
B44 | no binding | –
B45 | no binding | –
B46 | – | 0.68 fold
